Read-outs that look alike come from different tables or passages of the source. Each block holds one binder with its values, some of them ahead of it.
Experiments:
[1] = target: T1, linear diubiquitin (Boston Biochem) (human, UniProt P0CG48 1-152); experiment: western blot, 1 ug/mL IgG, LI-COR Odyssey quantification; Ub2 bands seen at 333 (faint) and 1000 ng
T1 construct: Bought product
Protocol: (§1) Gels were transferred at 30 V constant for 1 hour by wet transfer in 10% methanol and 1× NuPAGE transfer buffer (Invitrogen) to 0.2 μm nitrocellulose (Invitrogen). Non-specific binding sites on the membranes were blocked by incubation in 5% milk in PBST for 1 hour at 25° C. with shaking. […] The membranes were washed three times in PBST with shaking. The IgGs were detected by incubating the membrane in a 1:10,000 dilution of a goat anti-human Fc fragment-specific IR Dye 800CW-conjugated secondary antibody (Rockland Immunochemicals) in 5% milk in PBST for 30 minutes at 25° C. with shaking. The membranes were then washed three times in PBST followed by one wash in PBS. The secondary antibody was detected and quantified using the L1-COR Odyssey infrared imaging system (L1-COR Biosciences).

[2] = target: T1, linear diubiquitin (Boston Biochem); experiment: western blot, 1 ug/mL IgG, LI-COR Odyssey quantification; Ub2 bands seen at 111 (faint), 333 and 1000 ng
[3] = target: T2, K63-linked diubiquitin (Boston Biochem) (human, UniProt P0CG48 1-76, isopeptide bond between the C-terminus of one ubiquitin and Lys63 of the other); experiment: western blot, 1 ug/mL IgG, LI-COR Odyssey
T2 construct: Bought product; also called K63 diUb
Protocol: as §1

[4] = target: T1, linear diubiquitin (Boston Biochem); experiment: western blot, 1 ug/mL IgG, LI-COR Odyssey quantification; Ub2 bands seen at 37 (faint), 111, 333 and 1000 ng
[5] = target: T1, linear diubiquitin (Boston Biochem); experiment: western blot, 1 ug/mL IgG, LI-COR Odyssey quantification; Ub2 bands seen at 111 (faint), 333 and 1000 ng; remark: listed apart in the source
Protocol: as §1

[6] = target: T2, K63-linked diubiquitin (Boston Biochem); experiment: western blot, 1 ug/mL IgG, LI-COR Odyssey; remark: listed apart in the source

signal of the Ub2 band at 1000 ng linear diUb (number under the arrow) [1]: 8.7
B1: 1E3 IgG (antibody, V domains shown)
VH: EVQLVESGGGLVQPGGSLRLSCAASGFTFSNTYISWVRQAPGKGLEWVASITPSSGSTDYADSVKGRFTISADTSKNTAYLQMNSLRAEDTAVYYCARTWLLRWVMDYWGQGTLVTVSS
VL: DIQMTQSPSSLSASVGDRVTITCRASQDVSTAVAWYQQKPGKAPKLLIYSASFLYSGVPSRFSGSGSGTDFTLTISSLQPEDFATYYCQQSYTTPPTFGQGTKVEIK
notes: also called parental 1E3

signal of the Ub2 band at 1000 ng linear diUb (number under the arrow) [2]: 8.4
B2: 1F11/Y102L T110A (antibody, V domains shown)
VH: EVQLVESGGGLVQPGGSLRLSCAASGFTFSNTYISWVRQAPGKGLEWVASITPSSGSTDYADSVKGRFTISADTSKNTAYLQMNSLRAEDTAVYYCARTWLLRWVMDLWGQGTLVAVSS
VL: DIQMTQSPSSLSASVGDRVTITCRASQDVSTAVAWYQQKPGKAPKLLIYSAKFLYSGVPSRFSGSGSGTDFTLTISSLQPEDFATYYCQQSYTTPPTFGQGTKVEIK
notes: also called 1F11/Y102L T110A IgG

binding result [3]: no binding (tested: 1000 ng per lane) | signal of the Ub2 band at 1000 ng linear diUb (number under the arrow) [1]: 10.8
B3: 2C11 IgG (antibody, name in Kabat numbering, V domains shown)
VH: EVQLVESGGGLVQPGGSLRLSCAASGFTFSNTYISWVRQAPGKGLEWVASITPSSGSTDYADSVKGRFTISADTSKNTAYLQMNSLRAEDTAVYYCARTWLLRWVMDYWGQGTLVTVSS
VL: DIQMTQSPSSLSASVGDRVTITCRASQDVSTAVAWYQQKPGKAPKLLIYSASFLYSGVPSRFSGSGSGTDFTLTISSLQPEDFATYYCQQSYTQPPTFGQGTKVEIK

binding result [3]: no binding (tested: 1000 ng per lane)
B4: 1F11/3F5 IgG (antibody, V domains shown)
VH: EVQLVESGGGLVQPGGSLRLSCAASGFTFSNTYISWVRQAPGKGLEWVASITPSSGQTDYADSVKGRFTISADTSKNTAYLQMNSLRAEDTAVYYCARTWLLRWVMDYWGQGTLVTVSS
VL: DIQMTQSPSSLSASVGDRVTITCRASQDVSTAVAWYQQKPGKAPKLLIYSAKFLYSGVPSRFSGSGSGTDFTLTISSLQPEDFATYYCQQSYTTPPTFGQGTKVEIK
notes: also called double mutant 1F11/3F5

signal of the Ub2 band at 1000 ng linear diUb (number under the arrow) [4]: 15.5
B5: 1F11/3F5/Y102L IgG (antibody, V domains shown)
VH: EVQLVESGGGLVQPGGSLRLSCAASGFTFSNTYISWVRQAPGKGLEWVASITPSSGQTDYADSVKGRFTISADTSKNTAYLQMNSLRAEDTAVYYCARTWLLRWVMDLWGQGTLVTVSS
VL: DIQMTQSPSSLSASVGDRVTITCRASQDVSTAVAWYQQKPGKAPKLLIYSAKFLYSGVPSRFSGSGSGTDFTLTISSLQPEDFATYYCQQSYTTPPTFGQGTKVEIK
notes: also called triple mutant; hybrid anti-linear polyubiquitin antibody

signal of the Ub2 band at 1000 ng linear diUb (number under the arrow) [1]: 13.1
B6: 1F11 IgG (antibody, V domains shown)
VH: EVQLVESGGGLVQPGGSLRLSCAASGFTFSNTYISWVRQAPGKGLEWVASITPSSGSTDYADSVKGRFTISADTSKNTAYLQMNSLRAEDTAVYYCARTWLLRWVMDYWGQGTLVTVSS
VL: DIQMTQSPSSLSASVGDRVTITCRASQDVSTAVAWYQQKPGKAPKLLIYSAKFLYSGVPSRFSGSGSGTDFTLTISSLQPEDFATYYCQQSYTTPPTFGQGTKVEIK

signal of the Ub2 band at 1000 ng linear diUb (number under the arrow) [2]: 5.4
B7: Y102L IgG (antibody, V domains shown)
VH: EVQLVESGGGLVQPGGSLRLSCAASGFTFSNTYISWVRQAPGKGLEWVASITPSSGSTDYADSVKGRFTISADTSKNTAYLQMNSLRAEDTAVYYCARTWLLRWVMDLWGQGTLVTVSS
VL: DIQMTQSPSSLSASVGDRVTITCRASQDVSTAVAWYQQKPGKAPKLLIYSASFLYSGVPSRFSGSGSGTDFTLTISSLQPEDFATYYCQQSYTTPPTFGQGTKVEIK
notes: human kappa IgG1; also called Y012L

signal of the Ub2 band at 1000 ng linear diUb (number under the arrow) [5]: 13.1 | binding result [6]: no binding (tested: 1000 ng per lane)
B8: 2C11/3F5 IgG (antibody, name in Kabat numbering, V domains shown)
VH: EVQLVESGGGLVQPGGSLRLSCAASGFTFSNTYISWVRQAPGKGLEWVASITPSSGQTDYADSVKGRFTISADTSKNTAYLQMNSLRAEDTAVYYCARTWLLRWVMDYWGQGTLVTVSS
VL: DIQMTQSPSSLSASVGDRVTITCRASQDVSTAVAWYQQKPGKAPKLLIYSASFLYSGVPSRFSGSGSGTDFTLTISSLQPEDFATYYCQQSYTQPPTFGQGTKVEIK

binding result [3]: no binding (tested: 1000 ng per lane) | signal of the Ub2 band at 1000 ng linear diUb (number under the arrow) [1]: 10.4
B9: 2H5 IgG (antibody, name in Kabat numbering, V domains shown)
VH: EVQLVESGGGLVQPGGSLRLSCAASGFTFSNTYISWVRQAPGKGLEWVASITPSSGSTDYADSVKGRFTISADTSKNTAYLQMNSLRAEDTAVYYCARTWLLRWVMDYWGQGTLVTVSS
VL: DIQMTQSPSSLSASVGDRVTITCRASQDVSTAVAWYQQKPGKAPKLLIYSASFLYSGVPSRFSGSGSGTDFTLTISSLQPEDFATYYCQQSYTNPPTFGQGTKVEIK

signal of the Ub2 band at 1000 ng linear diUb (number under the arrow) [4]: 18
B10: 3F5/Y102L IgG (antibody, V domains shown)
VH: EVQLVESGGGLVQPGGSLRLSCAASGFTFSNTYISWVRQAPGKGLEWVASITPSSGQTDYADSVKGRFTISADTSKNTAYLQMNSLRAEDTAVYYCARTWLLRWVMDLWGQGTLVTVSS
VL: DIQMTQSPSSLSASVGDRVTITCRASQDVSTAVAWYQQKPGKAPKLLIYSASFLYSGVPSRFSGSGSGTDFTLTISSLQPEDFATYYCQQSYTTPPTFGQGTKVEIK
notes: Human kappa IgG1

signal of the Ub2 band at 1000 ng linear diUb (number under the arrow) [4]: 5.5
B11: 1F11/3F5/Y102L T110A (antibody, V domains shown)
VH: EVQLVESGGGLVQPGGSLRLSCAASGFTFSNTYISWVRQAPGKGLEWVASITPSSGQTDYADSVKGRFTISADTSKNTAYLQMNSLRAEDTAVYYCARTWLLRWVMDLWGQGTLVAVSS
VL: DIQMTQSPSSLSASVGDRVTITCRASQDVSTAVAWYQQKPGKAPKLLIYSAKFLYSGVPSRFSGSGSGTDFTLTISSLQPEDFATYYCQQSYTTPPTFGQGTKVEIK
notes: also called 1F11/3F5/Y102L T110A IgG

signal of the Ub2 band at 1000 ng linear diUb (number under the arrow) [5]: 16.7 | binding result [6]: no binding (tested: 1000 ng per lane)
B12: 2H5/3F5 IgG (antibody, name in Kabat numbering, V domains shown)
VH: EVQLVESGGGLVQPGGSLRLSCAASGFTFSNTYISWVRQAPGKGLEWVASITPSSGQTDYADSVKGRFTISADTSKNTAYLQMNSLRAEDTAVYYCARTWLLRWVMDYWGQGTLVTVSS
VL: DIQMTQSPSSLSASVGDRVTITCRASQDVSTAVAWYQQKPGKAPKLLIYSASFLYSGVPSRFSGSGSGTDFTLTISSLQPEDFATYYCQQSYTNPPTFGQGTKVEIK

signal of the Ub2 band at 1000 ng linear diUb (number under the arrow) [5]: 16.4 | binding result [3]: no binding (tested: 1000 ng per lane)
B13: 3F5 IgG (antibody, V domains shown)
VH: EVQLVESGGGLVQPGGSLRLSCAASGFTFSNTYISWVRQAPGKGLEWVASITPSSGQTDYADSVKGRFTISADTSKNTAYLQMNSLRAEDTAVYYCARTWLLRWVMDYWGQGTLVTVSS
VL: DIQMTQSPSSLSASVGDRVTITCRASQDVSTAVAWYQQKPGKAPKLLIYSASFLYSGVPSRFSGSGSGTDFTLTISSLQPEDFATYYCQQSYTTPPTFGQGTKVEIK

binding result [6]: no binding (tested: 1000 ng per lane)
B14: 1F11/2C11/3F5 triple mutant IgG (antibody, name in Kabat numbering, V domains shown)
VH: EVQLVESGGGLVQPGGSLRLSCAASGFTFSNTYISWVRQAPGKGLEWVASITPSSGQTDYADSVKGRFTISADTSKNTAYLQMNSLRAEDTAVYYCARTWLLRWVMDYWGQGTLVTVSS
VL: DIQMTQSPSSLSASVGDRVTITCRASQDVSTAVAWYQQKPGKAPKLLIYSAKFLYSGVPSRFSGSGSGTDFTLTISSLQPEDFATYYCQQSYTQPPTFGQGTKVEIK
notes: human kappa IgG1

signal of the Ub2 band at 1000 ng linear diUb (number under the arrow) [2]: 5.3
B15: 1F11/Y102L IgG (antibody, V domains shown)
VH: EVQLVESGGGLVQPGGSLRLSCAASGFTFSNTYISWVRQAPGKGLEWVASITPSSGSTDYADSVKGRFTISADTSKNTAYLQMNSLRAEDTAVYYCARTWLLRWVMDLWGQGTLVTVSS
VL: DIQMTQSPSSLSASVGDRVTITCRASQDVSTAVAWYQQKPGKAPKLLIYSAKFLYSGVPSRFSGSGSGTDFTLTISSLQPEDFATYYCQQSYTTPPTFGQGTKVEIK
notes: human kappa IgG1

binding result [6]: no binding (tested: 1000 ng per lane)
B16: 1F11/2H5/3F5 triple mutant IgG (antibody, name in Kabat numbering, V domains shown)
VH: EVQLVESGGGLVQPGGSLRLSCAASGFTFSNTYISWVRQAPGKGLEWVASITPSSGQTDYADSVKGRFTISADTSKNTAYLQMNSLRAEDTAVYYCARTWLLRWVMDYWGQGTLVTVSS
VL: DIQMTQSPSSLSASVGDRVTITCRASQDVSTAVAWYQQKPGKAPKLLIYSAKFLYSGVPSRFSGSGSGTDFTLTISSLQPEDFATYYCQQSYTNPPTFGQGTKVEIK
notes: human kappa IgG1

From patent publication US20130058955A1 (Genentech, published 2013)
